This experiment concerns the target FAIM2 (Fas-apoptotic inhibitory molecule 2) (UniProt Q8K097). The experiment in a line: FAIM2 immunoprecipitation, αA-crystallin immunoblot. The conditions noted are these: reference: wild type; sites T148. On the technique in general: A western blot detects proteins with antibodies after separation by electrophoresis.

We go through one substance from article PMC11417767.

For the substance “αA-crystallin (HSPB4/CRYAA) (from UniProt P02489) T148A”, the “binding against the reference” value was “weaker”.
